The values that follow are results of earlier work, collected in publication PMC9917595.

The target of this data set is Endothelin-1 (Homo sapiens) (UniProt P05305). The conditions noted are these: cited from earlier work.
UniProt P05305, sequence (P05305 53-73): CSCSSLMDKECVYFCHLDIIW

“Endothelin B receptor (from UniProt P24530)”: the Kd is 0.0286 nM.

As usually defined, the Kd is the concentration at which binding is half-saturated.
